Source: patent US20010034019A1, “Chimeric HCV/GBV-B viruses” (priority 1999, published 2001)

Assays:
[1] = biological target: T1, GBV-B NS5B ΔCT19 (Hepatitis GB virus B, UniProt Q69422); assay: Scintillation proximity assay (SPA) of RdRp activity; type: biochemical
T1 construct: initiator methionine (N); made in house; host or cells: E. coli JM109 (DE3)
T1 sequence (Q69422 2275-2845 limits assumed): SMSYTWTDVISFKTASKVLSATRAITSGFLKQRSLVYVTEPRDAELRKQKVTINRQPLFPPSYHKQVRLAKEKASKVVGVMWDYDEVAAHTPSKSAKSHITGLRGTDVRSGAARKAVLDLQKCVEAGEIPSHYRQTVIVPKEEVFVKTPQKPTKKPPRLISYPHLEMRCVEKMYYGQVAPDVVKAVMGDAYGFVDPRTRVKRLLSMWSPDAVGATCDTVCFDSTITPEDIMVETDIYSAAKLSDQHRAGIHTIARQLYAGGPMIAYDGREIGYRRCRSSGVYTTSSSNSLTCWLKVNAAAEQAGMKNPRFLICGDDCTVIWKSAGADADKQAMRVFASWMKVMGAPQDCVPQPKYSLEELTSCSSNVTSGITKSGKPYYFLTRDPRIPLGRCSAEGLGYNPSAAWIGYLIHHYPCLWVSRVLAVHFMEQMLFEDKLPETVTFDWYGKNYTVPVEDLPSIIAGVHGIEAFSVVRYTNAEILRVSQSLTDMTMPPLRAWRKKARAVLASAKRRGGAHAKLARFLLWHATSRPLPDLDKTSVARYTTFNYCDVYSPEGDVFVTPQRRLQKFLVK
Procedure: Scintillation proximity assay (SPA). SPA was used to determine the standard activity of RdRp, and performed under standard conditions as described previously by Ferrari et al., supra. Briefly, reaction mixtures (50 μl in total volume) containing, in addition to other buffer components (20 mM HEPES, pH7.3, 7.5 mM DTT, 10 mM MnCl2, 100 mM NaCl, 50 μg/ml BSA and 2 units of RNasin), 250 ng of poly(C), 25 ng of biotinylated oligo(G)12, 5 μM GTP/ 0.1 μCi of ^3H-GTP and 175 ng of GBV-B NS5B protein were incubated in a 96-well plate at room temperature for 3 hours. The reactions were terminated by addition of 50 μl of 100 mM EDTA in phosphate-buffered saline (PBS), the products were captured by SPA beads coated with streptavidin and ^3H-GMP incorporation was determined with a scintillation counter.

[2] = biological target: T1, GBV-B NS5B ΔCT19; assay: RNA-binding (gel-shift) competition assay; settings: for affinity order of binding to NS5B ΔCT19: competition with nonradiolabeled RNA homopolymers
Procedure: RNA-binding assay. The RNA binding assay was performed in a 10 μl reaction mixture containing 20 mM HEPES, pH 7.3, 7.5 mM MnCl2, 7.5 mM DTT, 5% glycerol, 125 mM NaCl, 100 μg per ml of BSA, 1 unit of RNase inhibitor, 100 ng of GBV-B NS5B protein, 1 pmol of an end-labeled RNA probe with the sequence of 5′-U28GGACUU CGGUCC-3′, and increasing amounts of homopolymeric RNA as depicted indicated in FIG. 12. The probe bound most tightly to the GBV-B NS5B among all the RNA probes of similar length tested (data not shown). Following incubation at room temperature for 30 min, the reaction mixture was separated on a nondenaturing 6% polyacrylamide gel at 180 volts for 1.25 hrs in 0.5×TBE buffer. The gel was dried and subjected to autoradiography.

[3] = biological target: T1, GBV-B NS5B ΔCT19; assay: Gel-based RdRp assay; type: biochemical; settings: ZnCl2 0, 1, 2.5, 5, 7.5, 10 μM
Procedure: Gel-based RdRp assay. Standard activity assays were performed in a reaction mixture (40 μl) containing 20 mM HEPES, pH 7.3, 15 mM MnCl2, 100 μM of ATP, UTP, GTP and 10 μCi of α-^33P-CTP, 300 ng of purified protein and 0.2 μg of a 36-base synthetic RNA (5′-GGA25UAUAUAUAU-3′). The sequence of the RNA was designed to form a stem-loop at the 3′-end to support the “copy-back” priming of RNA synthesis. The polymerization reaction was performed at 30° C. for 1 hr and terminated by phenol and chloroform extraction. RNA was ethanol precipitated and separated on a 15% TBE/6 M urea polyacrylamide gel (Novex). The gel was fixed, vacuum dried and subjected to autoradiography.

[4] = tested on: GBV-B NS4A 15-mer peptide (amino acids 22-36)
[5] = tested on: GBV-B NS4A cofactor peptide (4A17; amino acids 20-36 of GBV-B NS4A)
[6] = tested on: GBV-B NS4A 18-mer peptide (amino acids 29-46)
[7] = tested on: HCV NS4A cofactor peptide (4A13; aa 22-34 of HCV NS4A)
[8] = tested on: GBV-B NS4A peptide (4A31; aa 16-46 of GBV-B NS4A)

Question: How did the “ability of divalent cation to support RdRp activity” value ([1]; concentrations as high as 20 mM) turn out when `[Cl-].[Cl-].[Mg+2]` [Mg^2+, MgCl2] was run?
Answer: could not replace Mn^2+ to support the activity

Question: poly (A) was tested. Which “affinity order of binding to NS5B ΔCT19” value [2] did it give?
Answer: poly (U)>poly (G)>poly (A)>poly (C)

Question: poly (C) was tested. Which “affinity order of binding to NS5B ΔCT19” value [2] did it give?
Answer: poly (U)>poly (G)>poly (A)>poly (C)

Question: How did the “inhibition of GBV-B RdRp activity” value [3] turn out when `[Cl-].[Cl-].[Zn+2]` [Zn^2+, ZnCl2] was run?
Answer: inhibits GBV-B RdRp activity at low-micromolar (μM) concentrations

Question: How did the “cofactor activity: enhancement of cleavage of GBV-B NS4A/4B substrate by 1.5 uM GBV-B NS3 (phosphorimaging)” value (“cofactor activity: enhancement” below) [4] turn out when “full-length GBV-B NS3 protease (GBV-B NS3-His)” was run?
Answer: a 15-mer peptide (amino acids 22-36), which is the minimum region that efficiently activates protease activity for trans-cleavage

Question: What about the “cofactor activity: enhancement” value [5] of the same molecule?
Answer: a 17-mer peptide derived from amino acid 20 to 36 of NS4A retained the cofactor activity

Question: What about the “trans-cleavage of HCV (250 nM protease) and GBV-B (2 uM protease) NS4A/4B substrates by GBV-B NS3 with 100 uM peptide (SDS-PAGE)” value [5] of the same molecule?
Answer: protease activation is dependent upon an NS4A cofactor from the same virus (GBV-B NS3 activated by the GBV-B NS4A peptide)

Question: What about the “cofactor activity: enhancement” value [6] of the same molecule?
Answer: did not possess the cofactor activity as it failed to enhance the protease activity

Question: And the “trans-cleavage of HCV (250 nM protease) and GBV-B (2 uM protease) NS4A/4B substrates by GBV-B NS3 with 100 uM peptide (SDS-PAGE)” value [7]?
Answer: protease activation is dependent upon an NS4A cofactor from the same virus (GBV-B NS3 not activated by the HCV NS4A peptide)

Question: And the “trans-cleavage of GBV-B NS4A/4B substrate by 2 uM GBV-B NS3 with or without 20 uM peptide (SDS-PAGE)” value [8]?
Answer: cleavage at the NS4A/NS4B junction by wild type GBV-B NS3 occurs only in the presence of the GBV-B NS4A cofactor

Question: What about the “trans-cleavage of GBV-B NS5A/5B substrate by 2 uM GBV-B NS3 with or without 20 uM peptide (SDS-PAGE)” value [8] of the same molecule?
Answer: processing at the NS5A/NS5B junction is also NS4A cofactor-dependent

Question: And the “trans-cleavage of in vitro translated HCV NS4A/4B, NS4B/5A and NS5A/5B substrates by GBV-B NS3 with or without 20 uM peptide (SDS-PAGE)” value [8]?
Answer: substrate processing was greatly improved by the NS4A peptide

Question: With “full-length HCV NS3 protease (HCV His-NS3)” as the molecule, how does the “trans-cleavage of HCV and GBV-B NS4A/4B substrates by 50 nM HCV NS3 with 100 uM peptide (SDS-PAGE)” value [5] read?
Answer: protease activation is dependent upon an NS4A cofactor from the same virus (HCV NS3 not activated by the GBV-B NS4A peptide)

Question: And the “trans-cleavage of GBV-B NS4A/4B substrate by HCV NS3 with or without 100 uM peptide (SDS-PAGE)” value [7]?
Answer: dose-dependent and NS4A cofactor-enhanced cleavage activity at the NS4A/4B junction site

Question: And the “trans-cleavage of GBV-B NS4A/4B substrate by full-length HCV NS3 with HCV NS4A peptide (SDS-PAGE)” value [7]?
Answer: also generated the cleavage products in an HCV NS4A cofactor-dependent manner

Question: And the “trans-cleavage of GBV-B NS5A/5B substrate by HCV NS3 with or without 100 uM peptide (SDS-PAGE)” value [7]?
Answer: Cleavage of the GBV-B NS5A/5B site was inefficient and required 10 µM of HCV NS3 protease and was cofactor dependent

Question: What about the “trans-cleavage of HCV and GBV-B NS4A/4B substrates by 50 nM HCV NS3 with 100 uM peptide (SDS-PAGE)” value [7] of the same molecule?
Answer: protease activation is dependent upon an NS4A cofactor from the same virus (HCV NS3 activated by the HCV NS4A peptide)

Question: For `OCC(O)CO` [Glycerol], which “concentration at which RdRp activity is inhibited” value ([1]; poly C template, oligoG12 primer) is on record?
Answer: higher than 3%

Question: With `[Cl][Mn][Cl]` [Mn^2+, MnCl2] as the molecule, how does the “optimal concentration of divalent cation for polymerase activity” value ([1]; titration 0-20 mM) read?
Answer: 15 mM

Question: Which “competition for binding of NS5B ΔCT19 to labeled RNA probe” value ([2]; 0.1, 1, 10, 100 x probe) does the source give for poly (U) here?
Answer: competes most efficiently for binding

Question: What about the “affinity order of binding to NS5B ΔCT19” value [2] of the same molecule?
Answer: poly (U)>poly (G)>poly (A)>poly (C)
